These results are taken from paper PMC10348809, “CsMYB15 positively regulates Cs4CL2-mediated lignin biosynthesis during juice sac granulation in navel orange”.

Data set [1] deals with T1, MBP-CsMYB15 (Citrus sinensis Osbeck ('Lane Late' …, UniProt A0A7G7YA61 1-267)).
T1 sequence: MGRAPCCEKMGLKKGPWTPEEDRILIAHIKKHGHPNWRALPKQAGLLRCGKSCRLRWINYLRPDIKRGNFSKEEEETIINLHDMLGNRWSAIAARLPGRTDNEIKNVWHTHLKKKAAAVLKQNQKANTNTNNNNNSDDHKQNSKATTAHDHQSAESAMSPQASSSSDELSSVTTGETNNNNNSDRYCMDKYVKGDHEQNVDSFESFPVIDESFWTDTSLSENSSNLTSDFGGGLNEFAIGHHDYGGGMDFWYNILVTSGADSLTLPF
Nature of the data set: EMSA; not stated (EMSA as in Shi et al., 2020 with minor modifications). The conditions noted are these: protein: recombinant; tags: MBP; label: 5' FAM on S18; blunt. A general note: A gel shift assay detects complexes by their altered migration in electrophoresis.

Data set [2] has as its target T1, MBP-CsMYB15. Nature of the data set: competition; dose-dependent competition against FAM probe N1; not stated (EMSA as in Shi et al., 2020 with minor modifications). The conditions noted are these: protein: recombinant; tags: MBP; blunt.

B1: proCs4CL2 probe (dsDNA)
DNA 1: GCAAAAATAACTCACCATCCCCTTTGCTTCCC
DNA 2: GGGAAGCAAAGGGGATGGTGAGTTATTTTTGC
As to B1, the binding result in data set [1] is “binds”.

B2: proCs4CL2 unlabeled competitor (dsDNA)
DNA 1: GCAAAAATAACTCACCATCCCCTTTGCTTCCC
DNA 2: GGGAAGCAAAGGGGATGGTGAGTTATTTTTGC
B2: in data set [2], the binding result was “binds”.
